Laboratory results reported in PMC11289387, “Structure of the MlaC-MlaD complex reveals molecular basis of periplasmic phospholipid transport” (Nature Communications, 2024).

Target: the molecule itself
Assay: cryo-EM structure; cardiolipin-loaded MlaD^32-183 with MlaC-apo, cross-linked with 0.1% glutaraldehyde, 0.8 mg/mL in 20 mM Tris pH 8.0, 150 mM NaCl; 1:6 map at 4.35 Å, 2:6 map at 4.38 Å

B1: periplasmic domain of E. coli MlaD (residues 32-183), MlaD^32-183 (domain or fragment, UniProt P64604 32-183, looked up)
chain: TSIRTEPTYTLYATFDNIGGLKARSPVSIGGVVVGRVADITLDPKTYLPRVTLEIEQRYNHIPDTSSLSIRTSGLLGEQYLALNVGFEDPELGTAILKDGDTIQDTKSAMVLEDLIGQFLYGSKGDDNKNSGDAPAAAPGNNETTEPVGTTK
notes: synthesised (Genscript), cloned in pET26b; No cleavage of the His tag is described; In the functional rows of the MlaC mutants the wild-type MlaD stood as part of MlaFEDB in acceptor proteoliposomes, not as this fragment; source: E. coli BL21(DE3), purified (Ni-NTA, Superdex 200); lipid removed with β-OG and loaded with cardiolipin where stated
- stoichiometry N: 6
